Measured values reported in patent publication US9081020B2, “Mutant proteins and methods for selecting them” (Heptares Therapeutics Limited, priority 2008, dated 2015).
Where a chain is given by its changes, count along the chain named. Numbers in names are those of the source. Where “and” joins values, the source holds several entries; their conditions need not be identical. Equal values may be shown once. Read-outs that look alike come from different tables or passages of the source.

T1: M1 mAChR (Rattus norvegicus, UniProt P08482, DEL225-353/L65A)
T1 construct: (His)9QGG (C); expressed in transfected cells; host or cells: E. coli BL21 (whole cells)
T1 sequence (P08482 with tags, fused parts or gaps L65A/DEL225-353): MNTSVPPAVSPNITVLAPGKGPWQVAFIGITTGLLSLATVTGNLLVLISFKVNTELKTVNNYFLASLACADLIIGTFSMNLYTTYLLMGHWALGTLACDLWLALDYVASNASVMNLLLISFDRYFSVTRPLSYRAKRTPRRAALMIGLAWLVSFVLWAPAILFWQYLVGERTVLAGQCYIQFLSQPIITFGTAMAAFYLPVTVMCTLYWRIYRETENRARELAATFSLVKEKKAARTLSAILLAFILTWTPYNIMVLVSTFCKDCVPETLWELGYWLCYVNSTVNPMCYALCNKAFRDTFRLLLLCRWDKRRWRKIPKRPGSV

B1: L65A: M1 mAChR mutant L65A (TM2); background and internal control in Example 3 (protein, UniProt P11229 1-460, looked up, variant L65A)
Muscarinic acetylcholine …: MNTSAPPAVSPNITVLAPGKGPWQVAFIGITTGLLSLATVTGNLLVLISFKVNTELKTVNNYFLASLACADLIIGTFSMNLYTTYLLMGHWALGTLACDLWLALDYVASNASVMNLLLISFDRYFSVTRPLSYRAKRTPRRAALMIGLAWLVSFVLWAPAILFWQYLVGERTVLAGQCYIQFLSQPIITFGTAMAAFYLPVTVMCTLYWRIYRETENRARELAALQGSETPGKGGGSSSSSERSQPGAEGSPETPPGRCCRCCRAPRLLQAYSWKEEEEEDEGSMESLTSSEGEEPGSEVVIKMPMVDPEAQAPTKQPPRSSPNTVKRPTKKGRDRAGKGQKPRGKEQLAKRKTFSLVKEKKAARTLSAILLAFILTWTPYNIMVLVSTFCKDCVPETLWELGYWLCYVNSTINPMCYALCNKAFRDTFRLLLLCRWDKRRWRKIPKRPGSVHRTPSRQC
B2: L65A/C205A: M1 mAChR double mutant, Ala mutation on L65A background (protein, UniProt P11229 1-460, looked up, variant L65A C205A)
Muscarinic acetylcholine …: B1 Muscarinic acetylcholine … with C205A
B3: L65A/L402A: M1 mAChR double mutant, Ala mutation on L65A background (protein, UniProt P11229 1-460, looked up, variant L65A L402A)
Muscarinic acetylcholine …: B1 Muscarinic acetylcholine … with L402A
B4: L65A/Y208A: M1 mAChR double mutant, Ala mutation on L65A background (protein, UniProt P11229 1-460, looked up, variant L65A Y208A)
Muscarinic acetylcholine …: B1 Muscarinic acetylcholine … with Y208A

How the values were obtained:
M1 mAChR [1] = target: T1, M1 mAChR; assay type: physicochemical; conditions: after in-situ destabilisation in BOG or DDM
Experimental: (§1) This concentration was determined by analysing wild-type M1 mAChRs expressed in the inner cell membranes of intact E. Coli strain BL21 cells. The cells were pre-labelled with the radiolabelled antagonist 3H—N-methyl scopolamine and resuspended to a pre-determined cell density (Absorbance at 600 nm=2.0) in a chosen buffer (in this case 50 mM sodium phosphate, 1 mM EDTA, pH 7.5). […] The wild-type M1 mAChRs were titrated by the addition of increasing concentrations of beta octyl glucoside dissolved in the same buffer for different times (e.g. 1 h, 2 h, 3 h, 5 h, 15 h) and at different temperatures (e.g. 4° C., 15° C.). The loss of specifically-bound radioligand was then measured after recovering the cells by centrifugation (15000×g, 15 min.). In the example, the centrifugation step was performed on duplicate 1 ml aliquots of the cells. The experiment was repeated 3 times. […] It will be appreciated that the cell density, detergent concentration and other parameters of the assay may be varied to adjust the loss of activity as appropriate.
(§2) (a) A state of in-situ destabilisation of a particular membrane protein in a particular cell membrane as a result of the addition of a particular concentration of a particular detergent, can be defined by the loss of the characteristic specific ligand binding activity of the membrane protein for a particular ligand of interest in the presence of a defined concentration of a particular detergent molecule or other solubilising agent.
(§3) A preferred version of the assay is destabilisation of a membrane protein-ligand complex in a detergent-enriched membrane. The membrane protein, either in a membrane preparation, or in intact cells in-vivo or ex-vivo, is pre-incubated with a labelled version of the ligand, the label, for instance, being a radioactive label, or a fluorescent label, and the binding step preferably being allowed to proceed to equilibrium, defined as the achievement of a time-invariant level of binding. To define membrane protein-independent, or non-specific, binding the binding step is performed with the addition of a second non-labelled ligand, called the competing ligand, having an appropriate membrane protein-specific pharmacology, at a concentration sufficient fully to occupy the binding sites of the membrane protein and thereby exclude the binding of the labelled ligand. The difference between the binding of the labelled ligand in the absence and presence of the competing ligand is defined as the specific binding of the labelled ligand. Measurement of binding requires a suitable method for separating and measuring bound ligand. Characteristically, this involves centrifugation of intact cells or membranes for a time and at a centrifugal force adequate to pellet them (for instance, 15000×g for 15 min in the case of E. coli cells, or 100,000×g for plasma membrane preparations), or filtration of a membrane suspension e.g. through a suitable filter paper such as glass fibre paper e.g. GF-B or GF-C followed by counting of radioactivity. Alternatively, it might involve the measurement of an optical signal such as enhancement of fluorescence emission in the case of fluorescent ligands.
(§4) To perform the in-situ destabilisation assay, a pre-determined concentration of the detergent or other destabilising agent of choice is mixed with a membrane or cell suspension containing the pre-labelled membrane protein in an appropriate buffer composition at a particular temperature and for a particular time, determined as described below.

M1 mAChR [2] = assay type: physicochemical; conditions: 3 h, 4° C.; for % 3H-NMS retained BOG: whole E. coli BL21 cells, single culture; for Stability (βOG in-situ) % L65A control: 0.82% β-octyl glucoside, % loss(control)/% loss(mutant), mean±SEM of 3
Experimental: as §1, §2, §3, §4

M1 mAChR [3] = assay: thermal stability (Tm) of partially purified [3H]NMS-labelled receptors in 0.1% dodecyl-β-maltoside; assay type: physicochemical, rat; conditions: 0.1% DDM, incubation time 30 min; mean±range/SEM
Experimental: For measurements of thermal melting temperature (Tm), [3H]NMS-labelled receptors were partially purified by immobilized metal ion affinity chromatography from cultures grown from single clones expressed in E. Coli BL21 cells, essentially as described in Hulme and Curtis, 1998 (21). Tm measurements were carried out after gel-filtration of partially purified receptors into 50 mM sodium phosphate, 5 mM β-mercaptoethanol and 0.1% dodecyl-β-maltoside (DDM), using an incubation time of 30 min. Values were tabulated as mean±range/SEM of 2 or more independent measurements (Table 3).

Molecule | enhanced stability relative to wild-type (retention of bound 3H-NMS) (M1 mAChR [1]) [fold] | % 3H-NMS retained BOG (M1 mAChR [2]; 0.82% BOG, listed as L65A 1) | % 3H-NMS retained BOG (M1 mAChR [2]; 0.82% BOG, listed as L65 A 2) [%] | % 3H-NMS retained BOG (M1 mAChR [2]; 0.82% BOG, listed as L65A 2) [%] | % loss/wt (M1 mAChR [2]; 0.82% BOG, % loss relative to wild-type control, listed as L65A 1) | mean % retained (M1 mAChR [2]; 0.82% BOG, mean of the cultures, listed as L65A 1) | Stability (βOG in-situ) % L65A control (M1 mAChR [2]) [% L65A control] | Tm (0.1% DDM) (M1 mAChR [3]) [°C]
B1 | 2 | 83% and 79% | 86 | 79 | 0.29 and 0.4 | 84.5% and 79% | 100 | 29.3 ± 0.4
B2 |  |  |  |  |  |  | 106 ± 5 | 28.1 ± 0.1
B3 |  |  |  |  |  |  | 105 ± 10 | 30.1 ± 0.5
B4 |  |  |  |  |  |  | 100 ± 7 | 29.6 ± 0.5
